B1: Mothers against decapentaplegic homolog 4 (Homo sapiens), Q13485 (parent)
chain: MDNMSITNTPTSNDACLSIVHSLMCHRQGGESETFAKRAIESLVKKLKEKKDELDSLITAITTNGAHPSKCVTIQRTLDGRLQVAGRKGFPHVIYARLWRWPDLHKNELKHVKYCQYAFDLKCDSVCVNPYHYERVVSPGIDLSGLTLQSNAPSSMMVKDEYVHDFEGQPSLSTEGHSIQTIQHPPSNRASTETYSTPALLAPSESNATSTANFPNIPVASTSQPASILGGSHSEGLLQIASGPQPGQQQNGFTGQPATYHHNSTTTWTGSRTAPYTPNLPHHQNGHLQHHPPMPPHPGHYWPVHNELAFQPPISNHPAPEYWCSIAYFEMDVQVGETFKVPSSCPIVTVDGYVDPSGGDRFCLGQLSNVHRTEAIERARLHIGKGVQLECKGEGDVWVRCLSDHAVFVQSYYLDREAGRAPGDAVHKIYPSAYIKVFDLRQCHRQMQQQAATAQAAAAAQAAAVAGNIPGPGSVGGIAPAISLSAAAGIGVDDLRRLCILRMSFVKGWGPDYPRQSIKETPCWIEIHLHRALQLLDEVLHTMPIADPQPLD
B2: Isoform 1 of NF-kappa-B inhibitor beta (Homo sapiens), Q15653-1 (parent)
chain: MAGVACLGKAADADEWCDSGLGSLGPDAAAPGGPGLGAELGPGLSWAPLVFGYVTEDGDTALHLAVIHQHEPFLDFLLGFSAGTEYMDLQNDLGQTALHLAAILGETSTVEKLYAAGAGLCVAERRGHTALHLACRVGAHACARALLQPRPRRPREAPDTYLAQGPDRTPDTNHTPVALYPDSDLEKEEEESEEDWKLQLEAENYEGHTPLHVAVIHKDVEMVRLLRDAGADLDKPEPTCGRSPLHLAVEAQAADVLELLLRAGANPAARMYGGRTPLGSAMLRPNPILARLLRAHGAPEPEGEDEKSGPCSSSSDSDSGDEGDEYDDIVVHSSRSQTRLPPTPASKPLPDDPRPV
partner: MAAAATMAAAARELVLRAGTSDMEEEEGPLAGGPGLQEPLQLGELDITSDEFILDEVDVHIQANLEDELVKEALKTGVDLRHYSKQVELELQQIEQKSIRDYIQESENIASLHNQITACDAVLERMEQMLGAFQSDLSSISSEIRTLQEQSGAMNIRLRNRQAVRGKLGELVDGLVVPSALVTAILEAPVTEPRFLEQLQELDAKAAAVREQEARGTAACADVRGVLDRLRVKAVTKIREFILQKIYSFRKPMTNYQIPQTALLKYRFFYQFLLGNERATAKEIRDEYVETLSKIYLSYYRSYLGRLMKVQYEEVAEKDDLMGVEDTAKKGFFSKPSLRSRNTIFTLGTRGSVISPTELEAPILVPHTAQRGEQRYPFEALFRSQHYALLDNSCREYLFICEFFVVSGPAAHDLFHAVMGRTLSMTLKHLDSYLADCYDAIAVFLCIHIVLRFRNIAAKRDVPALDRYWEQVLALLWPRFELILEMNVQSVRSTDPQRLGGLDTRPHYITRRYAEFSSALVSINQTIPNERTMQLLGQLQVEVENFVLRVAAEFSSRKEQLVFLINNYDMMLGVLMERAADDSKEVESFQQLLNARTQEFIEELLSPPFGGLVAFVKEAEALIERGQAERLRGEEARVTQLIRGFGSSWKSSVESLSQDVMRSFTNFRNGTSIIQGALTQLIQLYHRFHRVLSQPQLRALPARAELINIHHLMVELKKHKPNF
B3: LHFPL tetraspan subfamily member 5 protein (Homo sapiens), Q8TAF8 (parent)
chain: MVKLLPAQEAAKIYHTNYVRNSRAVGVMWGTLTICFSVLVMALFIQPYWIGDSVNTPQAGYFGLFSYCVGNVLSSELICKGGPLDFSSIPSRAFKTAMFFVALGMFLIIGSIICFSLFFICNTATVYKICAWMQLAAATGLMIGCLVYPDGWDSSEVRRMCGEQTGKYTLGHCTIRWAFMLAILSIGDALILSFLAFVLGYRQDKLLPDDYKADGTEEV
partner: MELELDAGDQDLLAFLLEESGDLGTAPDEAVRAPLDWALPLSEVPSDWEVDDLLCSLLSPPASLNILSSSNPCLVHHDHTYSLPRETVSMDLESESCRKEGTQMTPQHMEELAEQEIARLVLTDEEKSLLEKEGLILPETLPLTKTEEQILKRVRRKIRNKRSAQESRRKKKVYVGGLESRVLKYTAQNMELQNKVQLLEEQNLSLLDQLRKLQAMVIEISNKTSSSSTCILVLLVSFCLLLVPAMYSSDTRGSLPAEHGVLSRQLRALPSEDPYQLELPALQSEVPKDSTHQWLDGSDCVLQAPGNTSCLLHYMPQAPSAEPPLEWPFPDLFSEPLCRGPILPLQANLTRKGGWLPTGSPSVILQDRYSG
B4: Homeobox protein VENTX (Homo sapiens), O95231 (parent)
chain: MRLSSSPPRGPQQLSSFGSVDWLSQSSCSGPTHTPRPADFSLGSLPGPGQTSGAREPPQAVSIKEAAGSSNLPAPERTMAGLSKEPNTLRAPRVRTAFTMEQVRTLEGVFQHHQYLSPLERKRLAREMQLSEVQIKTWFQNRRMKHKRQMQDPQLHSPFSGSLHAPPAFYSTSSGLANGLQLLCPWAPLSGPQALMLPPGSFWGLCQVAQEALASAGASCCGQPLASHPPTPGRPSLGPALSTGPRGLCAMPQTGDAF
partner: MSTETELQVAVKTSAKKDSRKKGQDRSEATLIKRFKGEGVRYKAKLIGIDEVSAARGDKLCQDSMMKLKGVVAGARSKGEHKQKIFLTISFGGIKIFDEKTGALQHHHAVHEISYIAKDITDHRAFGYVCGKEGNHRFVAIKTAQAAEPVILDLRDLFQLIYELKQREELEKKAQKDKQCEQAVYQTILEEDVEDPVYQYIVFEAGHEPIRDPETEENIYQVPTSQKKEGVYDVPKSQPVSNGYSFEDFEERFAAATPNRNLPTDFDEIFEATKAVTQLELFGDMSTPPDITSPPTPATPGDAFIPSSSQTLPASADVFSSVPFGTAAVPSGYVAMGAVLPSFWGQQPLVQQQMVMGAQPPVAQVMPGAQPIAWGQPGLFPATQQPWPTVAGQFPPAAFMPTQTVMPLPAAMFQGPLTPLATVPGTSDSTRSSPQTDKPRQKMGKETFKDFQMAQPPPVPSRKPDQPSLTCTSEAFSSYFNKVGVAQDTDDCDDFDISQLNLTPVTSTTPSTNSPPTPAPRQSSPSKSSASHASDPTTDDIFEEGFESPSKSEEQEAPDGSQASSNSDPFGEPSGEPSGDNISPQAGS
B5: E3 ubiquitin-protein ligase MARCHF5 (Homo sapiens), Q9NX47 (parent)
chain: MPDQALQQMLDRSCWVCFATDEDDRTAEWVRPCRCRGSTKWVHQACLQRWVDEKQRGNSTARVACPQCNAEYLIVFPKLGPVVYVLDLADRLISKACPFAAAGIMVGSIYWTAVTYGAVTVMQVVGHKEGLDVMERADPLFLLIGLPTIPVMLILGKMIRWEDYVLRLWRKYSNKLQILNSIFPGIGCPVPRIPAEANPLADHVSATRILCGALVFPTIATIVGKLMFSSVNSNLQRTILGGIAFVAIKGAFKVYFKQQQYLRQAHRKILNYPEQEEA
partner: B3 partner
B6: Protein LDOC1 (Homo sapiens), O95751 (parent)
chain: MVDELVLLLHALLMRHRALSIENSQLMEQLRLLVCERASLLRQVRPPSCPVPFPETFNGESSRLPEFIVQTASYMLVNENRFCNDAMKVAFLISLLTGEAEEWVVPYIEMDSPILGDYRAFLDEMKQCFGWDDDEDDDDEEEEDDY
partner: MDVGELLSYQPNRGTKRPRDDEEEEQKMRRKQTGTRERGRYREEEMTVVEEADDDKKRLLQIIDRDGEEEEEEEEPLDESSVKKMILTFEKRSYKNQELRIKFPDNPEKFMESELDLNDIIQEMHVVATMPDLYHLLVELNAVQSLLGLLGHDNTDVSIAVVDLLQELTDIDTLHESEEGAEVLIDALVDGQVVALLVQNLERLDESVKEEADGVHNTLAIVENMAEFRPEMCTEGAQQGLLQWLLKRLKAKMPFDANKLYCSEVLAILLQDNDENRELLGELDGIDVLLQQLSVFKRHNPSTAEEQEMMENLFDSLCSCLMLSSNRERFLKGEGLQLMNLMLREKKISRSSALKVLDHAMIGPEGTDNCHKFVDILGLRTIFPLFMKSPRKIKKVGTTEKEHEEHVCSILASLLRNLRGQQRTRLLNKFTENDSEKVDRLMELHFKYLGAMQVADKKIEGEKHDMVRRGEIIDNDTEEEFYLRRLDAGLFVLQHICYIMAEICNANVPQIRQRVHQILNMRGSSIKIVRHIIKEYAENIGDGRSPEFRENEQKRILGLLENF
B7: Protein FAM167A (Homo sapiens), Q96KS9 (parent)
chain: MSVPQIHVEEVGAEEGAGAAAPPDDHLRSLKALTEKLRLETRRPSYLEWQARLEEHTWPFPRPAAEPQASLEEGERGGQEPLLPLREAGQHPPSARSASQGARPLSTGKLEGFQSIDEAIAWLRKELTEMRLQDQQLARQLMRLRGDINKLKIEHTCRLHRRMLNDATYELEERDELADLFCDSPLASSFSLSTPLKLIGVTKMNINSRRFSLC
partner: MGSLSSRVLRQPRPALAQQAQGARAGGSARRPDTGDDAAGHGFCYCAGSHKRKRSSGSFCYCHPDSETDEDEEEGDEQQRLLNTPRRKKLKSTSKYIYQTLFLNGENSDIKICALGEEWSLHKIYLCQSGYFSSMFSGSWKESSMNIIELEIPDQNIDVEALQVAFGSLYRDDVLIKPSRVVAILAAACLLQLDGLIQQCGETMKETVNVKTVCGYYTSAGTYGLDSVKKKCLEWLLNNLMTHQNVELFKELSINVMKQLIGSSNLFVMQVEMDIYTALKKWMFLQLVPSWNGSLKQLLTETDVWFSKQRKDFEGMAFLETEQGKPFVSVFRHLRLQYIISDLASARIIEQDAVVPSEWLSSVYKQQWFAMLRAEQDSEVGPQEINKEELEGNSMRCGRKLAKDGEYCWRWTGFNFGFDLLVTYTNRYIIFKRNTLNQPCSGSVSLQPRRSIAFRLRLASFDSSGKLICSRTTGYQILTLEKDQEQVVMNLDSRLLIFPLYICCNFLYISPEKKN
B8: Ligand-dependent corepressor (Homo sapiens), Q96JN0 (parent)
chain: MQRMIQQFAAEYTSKNSSTQDPSQPNSTKNQSLPKASPVTTSPTAATTQNPVLSKLLMADQDSPLDLTVRKSQSEPSEQDGVLDLSTKKSPCAGSTSLSHSPGCSSTQGNGRPGRPSQYRPDGLRSGDGVPPRSLQDGTREGFGHSTSLKVPLARSLQISEELLSRNQLSTAASLGPSGLQNHGQHLILSREASWAKPHYEFNLSRMKFRGNGALSNISDLPFLAENSAFPKMALQAKQDGKKDVSHSSPVDLKIPQVRGMDLSWESRTGDQYSYSSLVMGSQTESALSKKLRAILPKQSRKSMLDAGPDSWGSDAEQSTSGQPYPTSDQEGDPGSKQPRKKRGRYRQYNSEILEEAISVVMSGKMSVSKAQSIYGIPHSTLEYKVKERLGTLKNPPKKKMKLMRSEGPDVSVKIELDPQGEAAQSANESKNE
B9: Golgin-45 (Homo sapiens), Q9H2G9 (parent)
chain: MTTKNLETKVTVTSSPIRGAGDGMETEEPPKSVEVTSGVQSRKHHSLQSPWKKAVPSESPGVLQLGKMLTEKAMEVKAVRILVPKAAITHDIPNKNTKVKSLGHHKGEFLGQSEGVIEPNKELSEVKNVLEKLKNSERRLLQDKEGLSNQLRVQTEVNRELKKLLVASVGDDLQYHFERLAREKNQLILENEALGRNTAQLSEQLERMSIQCDVWRSKFLASRVMADELTNSRAALQRQNRDAHGAIQDLLSEREQFRQEMIATQKLLEELLVSLQWGREQTYSPSVQPHSTAELALTNHKLAKAVNSHLLGNVGINNQKKIPSTVEFCSTPAEKMAETVLRILDPVTCKESSPDNPFFESSPTTLLATKKNIGRFHPYTRYENITFNCCNHCRGELIAL
partner: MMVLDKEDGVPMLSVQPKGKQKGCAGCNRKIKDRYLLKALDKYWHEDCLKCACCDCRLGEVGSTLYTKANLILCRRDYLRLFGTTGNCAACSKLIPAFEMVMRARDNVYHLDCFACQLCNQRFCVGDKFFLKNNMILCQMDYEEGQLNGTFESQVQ

Variants of: B1
Details: with smad9_human SMAD9, O15198
Sequence of smad9_human SMAD9, O15198 (O15198 whole entry): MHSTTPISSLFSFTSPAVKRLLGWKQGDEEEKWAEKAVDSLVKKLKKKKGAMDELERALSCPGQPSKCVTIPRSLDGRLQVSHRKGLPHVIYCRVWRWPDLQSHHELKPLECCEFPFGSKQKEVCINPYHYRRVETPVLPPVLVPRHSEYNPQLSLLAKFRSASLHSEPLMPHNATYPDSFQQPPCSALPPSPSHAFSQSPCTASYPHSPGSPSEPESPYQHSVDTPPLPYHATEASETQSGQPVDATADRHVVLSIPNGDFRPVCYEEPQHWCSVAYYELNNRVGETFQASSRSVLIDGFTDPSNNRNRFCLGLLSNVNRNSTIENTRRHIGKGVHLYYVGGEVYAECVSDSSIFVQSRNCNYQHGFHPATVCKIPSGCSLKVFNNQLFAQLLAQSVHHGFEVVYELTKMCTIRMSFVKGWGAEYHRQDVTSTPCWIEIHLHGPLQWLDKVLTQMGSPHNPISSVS

effect of a mutation on the interaction | Variant
disrupting interaction strength | R361C
disrupting interaction strength | V350D
disrupting interaction strength | L533R
with no effect | N13S

Variants of: B1
Details: with smad3_human SMAD3, P84022
Sequence of smad3_human SMAD3, P84022 (P84022 whole entry, looked up): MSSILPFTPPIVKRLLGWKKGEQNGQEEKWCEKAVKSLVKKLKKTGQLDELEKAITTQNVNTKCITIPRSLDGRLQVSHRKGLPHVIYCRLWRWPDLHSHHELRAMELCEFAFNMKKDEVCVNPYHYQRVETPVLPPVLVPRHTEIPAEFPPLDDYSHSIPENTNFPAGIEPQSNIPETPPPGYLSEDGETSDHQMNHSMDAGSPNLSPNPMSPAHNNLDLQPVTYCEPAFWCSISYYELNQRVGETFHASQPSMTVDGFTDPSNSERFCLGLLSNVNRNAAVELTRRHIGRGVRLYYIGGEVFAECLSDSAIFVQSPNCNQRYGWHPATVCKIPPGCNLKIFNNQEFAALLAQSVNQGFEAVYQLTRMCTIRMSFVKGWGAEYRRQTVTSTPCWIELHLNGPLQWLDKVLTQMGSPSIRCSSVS

effect of a mutation on the interaction | Variant
disrupting interaction strength | R361C
disrupting interaction strength | V350D
disrupting interaction strength | L533R
disrupting interaction strength | L533F
with no effect | N13S
disrupting interaction strength | R531W

Variants of: B1
Details: with ews_human EWSR1, Q01844
Sequence of ews_human EWSR1, Q01844 (Q01844 whole entry): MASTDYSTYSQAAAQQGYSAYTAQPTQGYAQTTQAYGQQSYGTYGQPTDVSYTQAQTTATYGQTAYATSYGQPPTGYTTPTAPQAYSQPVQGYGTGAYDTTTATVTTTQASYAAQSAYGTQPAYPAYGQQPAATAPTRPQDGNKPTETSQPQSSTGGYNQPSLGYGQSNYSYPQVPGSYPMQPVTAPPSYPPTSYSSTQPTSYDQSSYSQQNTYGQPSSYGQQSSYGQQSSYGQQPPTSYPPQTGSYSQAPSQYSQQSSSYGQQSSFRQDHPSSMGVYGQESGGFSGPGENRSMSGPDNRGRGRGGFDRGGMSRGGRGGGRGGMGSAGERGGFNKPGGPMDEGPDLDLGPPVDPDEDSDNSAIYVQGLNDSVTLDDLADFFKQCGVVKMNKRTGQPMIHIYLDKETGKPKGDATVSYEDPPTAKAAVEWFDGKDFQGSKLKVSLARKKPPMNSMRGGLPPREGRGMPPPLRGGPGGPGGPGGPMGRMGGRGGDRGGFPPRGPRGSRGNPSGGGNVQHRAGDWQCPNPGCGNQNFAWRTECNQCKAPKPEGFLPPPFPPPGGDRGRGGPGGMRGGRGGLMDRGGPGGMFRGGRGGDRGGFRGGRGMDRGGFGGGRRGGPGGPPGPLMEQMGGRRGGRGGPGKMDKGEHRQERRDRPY

effect of a mutation on the interaction | Variant
with no effect | L533F
with no effect | R531W

Variants of: B2
Details: with vps52_human VPS52, Q8N1B4

effect of a mutation on the interaction | Variant
with no effect | Q69L

Variants of: B3
Details: with creb3_human CREB3, O43889

effect of a mutation on the interaction | Variant
with no effect | K205N

Variants of: B4
Details: with dab1_human DAB1, O75553

effect of a mutation on the interaction | Variant
with no effect | M251V
with no effect | L42P
disrupting interaction strength | A226E

Variants of: B5
Details: with creb3_human CREB3, O43889

effect of a mutation on the interaction | Variant
with no effect | T20A
with no effect | D202N

Variants of: B6
Details: with ctbl1_human CTNNBL1, Q8WYA6

effect of a mutation on the interaction | Variant
disrupting interaction strength | L12H

Variants of: B7
Details: with gmcl1_human GMCL1, Q96IK5

effect of a mutation on the interaction | Variant
with no effect | S99T

Variants of: B8
Details: with ctbp2_human CTBP2, P56545

effect of a mutation on the interaction | Variant
with no effect | T44M

Variants of: B9
Details: with rbtn1_human LMO1, P25800

effect of a mutation on the interaction | Variant
with no effect | H45R
